{"source": "patent US20130189283A1", "about": "(Amgen, published 2013)", "data": [{"target": "T1, Soluble human TR2 (huTR2 long-huFc (IgG1)) (human)", "T1 construct": "also called Trail Receptor 2; TRAIL (huTR2)", "T1 sequence (chain, as listed by the source limits assumed)": "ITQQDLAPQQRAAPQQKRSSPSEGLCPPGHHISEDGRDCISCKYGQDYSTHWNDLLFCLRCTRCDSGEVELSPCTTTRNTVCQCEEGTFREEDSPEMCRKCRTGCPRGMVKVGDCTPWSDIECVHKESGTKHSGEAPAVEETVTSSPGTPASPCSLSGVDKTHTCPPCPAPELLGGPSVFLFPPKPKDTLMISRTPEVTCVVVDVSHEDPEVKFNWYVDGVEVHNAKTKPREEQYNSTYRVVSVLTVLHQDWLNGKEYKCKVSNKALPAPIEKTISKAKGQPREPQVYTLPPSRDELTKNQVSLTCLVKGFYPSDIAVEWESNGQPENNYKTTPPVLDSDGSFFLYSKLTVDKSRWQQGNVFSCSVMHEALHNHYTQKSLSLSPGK", "assay": "BIAcore solution equilibrium assay: antibody incubated with TR2, free TR2 read on immobilised antibody 16449", "values": [{"binder": "Antibody 10183 (antibody, V domains shown) VH: QVQLQESGPGLVKPSQTLSLTCTVSGGSISSGDYFWSWIRQLPGKGLEWIGHIHNSGTTYYNPSLKSRVTISVDTSKKQFSLRLSSVTAADTAVYYCARDRGGDYAYGMDVWGQGTTVTVSS VL: EIVLTQSPGTLSLSPGERATLSCRASQGISRSRLAWYQQKPGQAPSLLIYGASSRATGIPDRFSGSGSGTDFTLTISRLEPEDFAVYYCQQFGSSPWTFGQGTKVEIK", "binding result": "no binding (tested: 50 µM antibody with 10 nM TR2)"}, {"binder": "Antibody 4341 (antibody, human IgG1, kappa, V domains shown, also called LC:Y53E)) VH: QVQLQESGPGLVKPSQTLSLTCTVSGGSISSGDYFWSWIRQLPGKGLEWIGHIHNSGTTYYNPSLKSRVTISVDTSKKQFSLRLSSVTAADTAVYYCARDRGGDYAYGMDVWGQGTTVTVSS VL: EIVLTQSPGTLSLSPGERATLSCRASQGISRSELAWYQQKPGQAPSLLIYGASSRATGIPDRFSGSGSGTDFTLTISRLEPEDFAVYYCQQFGSSPWTFGQGTKVEIKR", "binding result": "no binding (tested: 50 µM antibody with 10 nM TR2)"}, {"binder": "Antibody 10184 (antibody, V domains shown) VH: QVQLQESGPGLVKPSQTLSLTCTVSGGSISSGDYFWSWIRQLPGKGLEWIGHIHNSGTTYYNPSLKSRVTISVDTSKKQFSLRLSSVTAADTAVYYCARDRGGDYRYGMDVWGQGTTVTVSS VL: EIVLTQSPGTLSLSPGERATLSCRASQGISRSRLAWYQQKPGQAPSLLIYGASSRATGIPDRFSGSGSGTDFTLTISRLEPEDFAVYYCQQFGSSPWTFGQGTKVEIK", "binding result": "no binding (tested: 50 µM antibody with 10 nM TR2)"}, {"binder": "Antibody 4241 (antibody, human IgG1, kappa, V domains shown, also called LC:Y53A)) VH: QVQLQESGPGLVKPSQTLSLTCTVSGGSISSGDYFWSWIRQLPGKGLEWIGHIHNSGTTYYNPSLKSRVTISVDTSKKQFSLRLSSVTAADTAVYYCARDRGGDYEYGMDVWGQGTTVTVSS VL: EIVLTQSPGTLSLSPGERATLSCRASQGISRSALAWYQQKPGQAPSLLIYGASSRATGIPDRFSGSGSGTDFTLTISRLEPEDFAVYYCQQFGSSPWTFGQGTKVEIKR", "binding result": "no binding (tested: 50 µM antibody with 10 nM TR2)"}]}, {"target": "T2, Soluble human IL-17R (huIL-17R-FpH) (human, UniProt Q96F46 33-320)", "T2 construct": "also called IL-17R extracellular domain", "T2 sequence": "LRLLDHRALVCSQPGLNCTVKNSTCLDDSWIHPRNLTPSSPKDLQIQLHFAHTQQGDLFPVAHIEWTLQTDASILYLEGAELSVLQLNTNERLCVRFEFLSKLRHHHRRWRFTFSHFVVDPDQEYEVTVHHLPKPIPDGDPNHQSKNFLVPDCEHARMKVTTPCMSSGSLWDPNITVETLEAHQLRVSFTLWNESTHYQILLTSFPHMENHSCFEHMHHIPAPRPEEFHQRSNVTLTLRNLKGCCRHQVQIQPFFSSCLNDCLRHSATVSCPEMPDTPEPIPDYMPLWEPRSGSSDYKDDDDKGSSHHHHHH", "assay": "BIAcore solution equilibrium assay: antibody incubated with IL-17R, free IL-17R read on immobilised antibody 16429", "values": [{"binder": "Antibody 16435 (antibody, human IgG2, kappa, V domains shown, also called LC: P66L, D90E) VH: QVQLVQSGAEVKKPGASVKVSCKASGYTFTRYGISWVRQAPGQGLEWMGWISTYSGNTNYAQKLQGRVTMTTDTSTSTAYMELRSLRSDDTAVYYCARAQLYFDYWGQGTLVTVSS VL: EIVMTQSPATLSVSPGERATLSCRASQSVSSNLAWFQQKPGQAPRLLIYDASTRATGVPARFSGSGSGTEFTLTISSLQSEDFAVYYCQQYDNWPLTFGGGTKVEIKR", "binding result": "no binding (tested: 30 µM antibody with 30 nM IL-17R)"}, {"binder": "Antibody 16438 (antibody, V domains shown) VH: QVQLVQSGAEVKKPGASVKVSCKASGYTFTRYGISWVRQAPGQGLEWMGWISTYSGNTNYAQKLQGRVTMTTDTSTSTAYMELRSLRSDDTAVYYCARRQQYFDYWGQGTLVTVSS VL: EIVMTQSPATLSVSPGERATLSCRASQSVSSNLAWFQQKPGQAPRLLIYDASTRATGVPARFSGSGSGTEFTLTISSLQSEDFAVYYCQQYDNWPLTFGGGTKVEIK", "binding result": "no binding (tested: 30 µM antibody with 30 nM IL-17R)"}, {"binder": "Antibody 16440 (antibody, V domains shown) VH: QVQLVQSGAEVKKPGASVKVSCKASGYTFTRYGISWVRQAPGQGLEWMGWISTYSGNTNYAQKLQGRVTMTTDTSTSTAYMELRSLRSDDTAVYYCARAQQYFDYWGQGTLVTVSS VL: EIVMTQSPATLSVSPGERATLSCRASQSVSSNLAWFQQKPGQAPRPLIYDASTRATGVPARFSGSGSGTDFTLTISSLQSEDFAVYYCQQYDNWPLTFGGGTKVEIK", "binding result": "no binding (tested: 30 µM antibody with 30 nM IL-17R)"}, {"binder": "Antibody 16439 (antibody, V domains shown) VH: QVQLVQSGAEVKKPGASVKVSCKASGYTFTRYGISWVRQAPGQGLEWMGWISTYSGNTNYAQKLQGRVTMTTDTSTSTAYMELRSLRSDDTAVYYCARRQQYFDYWGQGTLVTVSS VL: EIVMTQSPATLSVSPGERATLSCRASQSVSSNLAWFQQKPGQAPRLLIYDASTRATGVPARFSGSGSGTEFTLTISSLQSEDFAVYYCQQYDNAPLTFGGGTKVEIK", "binding result": "no binding (tested: 30 µM antibody with 30 nM IL-17R)"}, {"binder": "Antibody 16444 (antibody, human IgG2, kappa, V domains shown, also called LC: P66L, D90E, W114A) VH: QVQLVQSGAEVKKPGASVKVSCKASGYTFTRYGISWVRQAPGQGLEWMGWISTYSGNTNYAQKLQGRVTMTTDTSTSTAYMELRSLRSDDTAVYYCARAQQYFDYWGQGTLVTVSS VL: EIVMTQSPATLSVSPGERATLSCRASQSVSSNLAWFQQKPGQAPRLLIYDASTRATGVPARFSGSGSGTEFTLTISSLQSEDFAVYYCQQYDNAPLTFGGGTKVEIKR", "binding result": "no binding (tested: 30 µM antibody with 30 nM IL-17R)"}, {"binder": "Antibody 16441 (antibody, V domains shown) VH: QVQLVQSGAEVKKPGASVKVSCKASGYTFTRYGISWVRQAPGQGLEWMGWISTYSGNTNYAQKLQGRVTMTTDTSTSTAYMELRSLRSDDTAVYYCARAQQYFDYWGQGTLVTVSS VL: EIVMTQSPATLSVSPGERATLSCRASQSVSSNLAWFQQKPGQAPRLLIYDASTRATGVPARFSGSGSGTEFTLTISSLQSEDFAVYYCQQYDNWPLTFGGGTKVEIK", "binding result": "no binding (tested: 30 µM antibody with 30 nM IL-17R)"}]}]}
